The text below walks through data of publication PMC9807187.

The target in the assay is FLAG-tagged METTL3, wild type (UniProt Q8C3P7). Description: co-IP.
Sequence of UniProt Q8C3P7 (Q8C3P7 whole entry): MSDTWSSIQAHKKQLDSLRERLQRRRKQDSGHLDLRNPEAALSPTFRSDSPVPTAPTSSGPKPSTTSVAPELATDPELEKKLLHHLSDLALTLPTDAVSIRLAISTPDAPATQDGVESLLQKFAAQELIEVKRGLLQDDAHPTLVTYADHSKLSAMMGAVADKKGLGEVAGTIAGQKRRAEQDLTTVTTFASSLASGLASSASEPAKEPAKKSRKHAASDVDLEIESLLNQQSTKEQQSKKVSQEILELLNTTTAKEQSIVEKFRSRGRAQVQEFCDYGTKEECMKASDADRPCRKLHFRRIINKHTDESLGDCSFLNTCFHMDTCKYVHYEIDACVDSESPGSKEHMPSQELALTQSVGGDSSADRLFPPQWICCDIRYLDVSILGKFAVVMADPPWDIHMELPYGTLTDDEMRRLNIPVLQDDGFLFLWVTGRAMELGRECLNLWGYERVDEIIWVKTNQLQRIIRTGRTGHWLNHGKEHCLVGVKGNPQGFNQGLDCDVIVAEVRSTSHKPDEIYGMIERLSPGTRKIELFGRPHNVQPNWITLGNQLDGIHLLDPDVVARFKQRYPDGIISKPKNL

With “HA-p53 25,26,53,54 (p53 L25Q,Q26S,F53Q,F54S mutant) (from UniProt P02340 1-390) (natural protein)”, the reduction of binding against wild-type p53 stood at 50%.
